test: soluble on expression in E. coli; label from the status in PepcDB or PDB records

| Sequence | soluble on expression in E. coli |
| --- | --- |
| MGSDKIHHHHHHMLSLKNINFKGVKGINELELTLSDNPINVLIGTNGIGKTKALEALYTLLIFTNTAFQKYAMNGKDVVFNECLIANEQVIRIDNTESYTYIKQFFTNNKLSHSYPVIFIAAQNRGKIKSENSNSISPLGNADTRAYNYFRHIIRSMENDFSSLNMDMPIEEWIIQRANSSTSYQDEEDNRELELISLLKILNKIDERISCDKSTLKISGDNQVSILVDGKKTKLSALSSGFASLIKIIQSIIAGYSFFTNSRQIENVEGYVLIDEIESHLHLEWQTKILPILSEVFPYTRFIITTHSSLILSQLYTGSASRLVHEGSKIINEDIPNASNFTLIDLLQEAFDIDLNQIKISSTTAKHQERVKKAILDLLGA | not soluble |
| MLNPNKWLDVKKMLPRLAQKQWYAKTRYGYARGGETVHFVQNVRRYYDILTWVTQPLEHHHHHH | not soluble |
| MGSDKIHHHHHHMRAVRLHAKWDPRPEFKLGPKDIEGKLTWLGSKVWRYPEVRVEEVPEPRIEKPTEIIIKVKACGICGSDVHMAQTDEEGYILYPGLTGFPVTLGHEFSGVVVEAGPEAINRRTNKRFEIGEPVCAEEMLWCGHCRPCAEGFPNHCENLNELGFNVDGAFAEYVKVDAKYAWSLRELEGVYEGDRLFLAGSLVEPTSVAYNAVIVRGGGIRPGDNVVILGGGPIGLAAVAILKHAGASKVILSEPSEVRRNLAKELGADHVIDPTKENFVEAVLDYTNGLGAKLFLEATGVPQLVWPQIEEVIWRARGINATVAIVARADAKIPLTGEVFQVRRAQIVGSQGHSGHGTFPRVISLMASGMDMTKIISKTVSMEEIPEYIKRLQTDKSLVKVTMLNE | not soluble |
| IRHEITSRTSVSVLVNRCNWFCTSPKCSGLTVMGCLCVAMSVAKKDKPTMSVTALINWARPLPPGQQQQPMTPTSPGNMLQPMATPSNLPTVDCSLDIQWLNLEGGFMSPMSPPEMKPDTAMLDGLRDDSTPPPAFKNYPPNHPLSGSKHLCSICGDRASGKHYGVYSCEGCKGFFKRTVRKDLTYACREERNCIIDKRQRNRCQYCRYQKCLACGMKREAVQEERQRAARGTEDAHPSSSVQVQELSIERLLEMESLVADPSEEFQFLRVGPDSNVPPKFRAPVSSLCQIGNKQIAALVVWARDIPHFSQLEMEDQILLIKGSWNELLLFAIAWRSMEFLTEERDGVDGTGNRTTSPPQLMCLMPGMTLHRNSALQAGVGQIFDRVLSELSLKMRTLRVDQAEYVALKAIILLNPDVKGLKNRQEVEVLREKMFLCLDEYCRRSRSSEEGRFAALLLRLPALRSISLKSFEHLFFFHLVADTSIAGYIRDALRNHAPPIDTNMM | soluble |
| MSLKKYIITLLFCTLFCHLGIAQGLKSVSILGDSYSTFEGYVQPDTNFVWYLKTPPKGRKTDMVSVRNTWWHQFIKENNYRLCVNNSFSGATICHTGYRSEDYSDRSFITRMKALGCPDIIFIFGATNDYWAKSPLGEYKYADWSKKDLYSFRPAMAYMLDTMIDYYPNVEIYFLLNDGLGNEITESVRTICKHYQIDCIELKELDKMSGHPSVKGMKQISEQVKAYMNSRQNEGHHHHHH | not soluble |
| MGSDKIHHHHHHVTSGQDKPWPPVSMGMARLTTMAFHGENMVPPAIELLKRSEADPTDSAALLDLSAIHFLLGHEEAGLAYQERALAQNQVYRDHSETASEDGVRLLAFAAPGNLMSNVPIQFLIENSDIRLDVLYVVPGLDLPERVPAHDMAMVIAGESEPNREVLERIAAFADLWPCPPVLNDPRKVLQLSRDGVSSLLSGVPGIRIPATTRVDPESLARLGRGEIALTDLLPDGSFPVIARPLDSHAGKGLAKLDDPSTIALYLAAQPAEGYYLSSFVDYRGAGGMFRKYRIALIDGKPFVCHMAVSAHWMIHYLNADMRESAEKRAEEAQAFATFDEDFAARHKDAFATMAERIGLDYFAMDCAETPDGDLLVFEADTAMIVHAMDPPDIFPYKAPQMRRIFKAFQDMLRRIKQDKQD | not soluble |
| MSLTTMKEIAEQTGVSISTVSLVLNGRDEGRVNPALAKLVRNKATELGYKINPLARSLRTNKTRILGFISEEVATTPYAGGIILGAQDAASAYGYMLFTVSTDGKASEENEIATLKRYGVDGFFYSKMSNRIAHVPESLSDYPVVMVDATDYENKVPSVEPDEFMIGYDATIRLLQADCKRIAYVGCAENMIAQDGRLAGYCTALQEAGRAFNPSLVCNVMNDGPALRAVNKLFDDEHPDGFFCFNDARAWYVYECAARRGLTVGKDISVVGVDNHRVFAETLEPQLTTVELPHYEMGYWSACKLISMIEGKDVDTSEGHHHHHH | not soluble |
| MAALTASCIDLNIQGNGAYSVLKQLATIALQNGFITDSHQFLQTLLLREKMHSTGFGSGVAVPHGKSACVKQPFVLFARKAQAIDWKASDGEDVNCWICLGVPQSGEEDQVKIIGTLCRKIIHQEFIHQLQQGDTDQVLALLNQTLSS | not soluble |
| MGSDKIHHHHHHMYKLNLDIQAFLANDWQQAPKVFKGAFPDFEDPIAADELAGLACEEEVSSRVVVTKGNDWEVISGPFEDYDRFGETHWQLLVQAVNHWYPESQPLVEAFRFLPDWRFDDLMVSFATPQGGVGPHIDNYDVFIIQGEGQRRWTVGPKGNYQRRGGVTTSPLIEDFEPIIDVVLEKGDVLYIPPGFPHQGETLTLALSYSMGYRAPSQQELAGQIADQLMDEDKGHKRFIAVDGAASHGTVSLAEQQGIMQLIRDLCNDTDNVVKVLGKLLSQNRFDLDIQEDESIDADALVEALNEGAVLMRIGGLKVLKMEGDSQARLFVAGESVIIEGASEEELIEVSNSVNVNAELAQLPHWQGFFVQMLQKGYFYLGED | not soluble |
| MAHHHHHHMEREKHENMLMAIARDFNSVDDLIETFLTFLENKTDYFHVMLNDKDVETLSEKYDGAILKNLLNNNNCGFKAHSREQLLIKSFRKHQINYIMRKQPYIIENEEIKNKYLTSCDELKKIKYMPTTKDMNKEKQENSTKVNSDVHSLNVTQENHISIWNGGKTDKYYWNQALKEINLEMPFNEEIKPNDVNVQITNTNIKIYHCGVLKLEGMFYEEVDKQECVWSIEDKKNIIIYLEKKRENWWPCVIKGDTEIDTKNIESKKNLTDFDEKTQGQIRKFLLEQRMKNEGIPTPEDLRKQNIINNVLSSKGEPFGR | not soluble |
| MGSSHHHHHHSSGLVPRGSDLQEDEDGVYFSSYGHYGIHEEMLKDKIRTESYRDFIYQNPHIFKDKVVLDVGCGTGILSMFAAKAGAKKVLGVDQSEILYQAMDIIRLNKLEDTITLIKGKIEEVHLPVEKVDVIISEWMGYFLLFESMLDSVLYAKNKYLAKGGSVYPDICTISLVAVSDVNKHADRIAFWDDVYGFKMSCMKKAVIPEAVVEVLDPKTLISEPCGIKHIDCHTTSISDLEFSSDFTLKITRTSMCTAIAGYFDIYFEKNCHNRVVFSTGPQSTKTHWKQTVFLLEKPFSVKAGEALKGKVTVHKNKKDPRSLTVTLTLNNSTQTYGLQ | soluble |
| AVNEENIMIPKGVEVYEITGPYFFGIATKFEETMAQLGDRPNVRIIRMRKVPFIDSTGIHNLTTLCEMSQKEKITVILSGVNEKVYKVLEKSGFYELLGKENICPNFKIALDRAEEV | not soluble |
| MGSDKIHHHHHHMNRELILKALIDWNFWYKNQFVGIEREYSDQLLDLLEKGLAISVIGVKRSGKSTIINQVVKKLIEKKGEDPFDTLIVNFEDSRFGDIRTANDLFSLYELYKELRKKKKDSKPYIFLDEVQKIKGWEGFVRSIVDRKEANIVISGSTASVNNKSVREVLAGRHLILEVFPLSFKEFLEFKNIRLETELDMIAKESEIKVLFSEYLSYGGFPLVVSNERDKEKILLQLYEDIIFKDVISECNIRNEEEAKNLAIFYISNVGNKIRFRKISRSLNIPFRNVQRYTECMKNAYLIFFVKALSPKLSEMAKYDKKVYCIDNGISNVLGYRLNQNIGSLFENLIFLELLRRYGINNVFYYRGRRGEVDFVVKVKDEIREIYQVTYQLSDVERELKGIEEFLKIRKTKAYIITFDDEGEIKVGDDLVKVVKGWKWLLLE | not soluble |
| MKKWLALFVFGMVSLFATSAHAESYETTKTLKVYESRSFNSPVKKELQPGERVYVTNQHPSGWWKISGGFIAPEGAKVEINRTFEAFDWINMDSAKYVFSPQTVIARDGTLRGEILIDTYLGQKWTSVNGMPQIMKQNFAAYSSPEAKNPDAWFAPQTVNILQTKENGWSLINTYLGPKWIVRYPHVEHINRDFYAYNEPKYMHHGVKFSAQSVRVLQQGENGWKKIKAEVGEKWIAPQGSYYHVPNVFTAFDQPFGRAIGTFAPQTVFVVEESTTSFGWLKIRTYLGDSWIRTNRN | not soluble |
| MGSDKIHHHHHHACDGKVYKKGDKIMFGVPKVSGYLFVRTFTKDGKISTMPKENLASQEAVIVDIPDYDKKLFEGMGVYSEVETHPLVVVELDGRRLCININDALSQGNIVSEYFKSEVEGMVDLTSDLLFVYALKLNNVTVDDDVIVRYMAHCDKNLVEKNQADPFTMADLKKEYAAKLEKALGDVDFSKVFRIESQSEMLQYDMDKQIFPLKGLWCPQIKTDQPDALAKIGFCKWDDCVFRFVNIPEFMNVPCETARAKGFYDMRKVGKVPTYNTPLATSYTYIRFLDKKVQLPEKKNKVYHNGDIKSMSLADLYGKMAIEAQIIKMDVYHLPFLKISDFELFYNYLGSIEVK | not soluble |
| MSLRKTQTYKSLPYNPALRDRAKALRKAGILHEALLWFELKSNKLNGLDFDRQKIIGNYIVDFYCAERSVVIEVDGSSHDSKQIEDRERDAYLNGLGLTVIRVLAKDVLRNLEGVVEFLKDHPALTGTPPEEGNKTALTGTPPEEGNKTALTGTPPEEGNKTALTGTPPEEGNKTALTGTPPEEGNKTTLTEAREEGHHHHHH | soluble |
| MGSDKIHHHHHHLTNLLVIGATGNIGQPLIRDLQDDPDVHLFAGVHNSEHAKQALNGLKVQVRRFDFLDPATFEQALADIDKVFFVRPPQLAKPKEDMYPFLDALVARHVKQVVFVSLLGVAHNPMTPHHQIEKRIVELGLPYTFIRPSFFMQNLNTTHQADIVGHRDLFVPAGHARTSFIDTRDIGATAAVILRDPAYIGQKLDITGAQALTYADAAQIMTMELGVPITYSKPSLWRFRKVMLQRGLPKNYVNVMVMLYLITQLGNAKTVTTTLPNVLGRPAISFEQYVHDYRAEFLPKPLS | not soluble |
| MPDPQGGEIVYVGGTLLDLNRYELYYQFDFTAKYEITEEDTRQAEDVNALPDLSLLSIDVDYIDPGTGPDGDIEHHLEMRFPQN | not soluble |
| MAVCGLGSRLGLGSRLGLRGCFGAARLLYPRFQSRGPQGVEDGDRPQPSSKTPRIPKIYTKTGDKGFSSTFTGERRPKDDQVFEAVGTTDELSSAIGFALELVTEKGHTFAEELQKIQCTLQDVGSALATPCSSAREAHLKYTTFKAGPILELEQWIDKYTSQLPPLTAFILPSGGKISSALHFCRAVCRRAERRVVPLVQMGETDANVAKFLNRLSDYLFTLARYAAMKEGNQEKIYMKNDPSAESEGL | not soluble |
| MGSDKIHHHHHHMTENSRKTATELFEFLDGLGISHTTKQHEPVFTVAESQSLRDLIPGGHTKNLFVKDKKDQYFVLTVEENAVVDLKSVHKTIGAASRVSFGRPEKMLEYLGVVPGSVTVFGAINDTARQVTFVLDSDLLENELVNGHPLSNDQTTTIASKDLIRFLEATGHAPLVLKVSE | soluble |
| MSAITITEAAQAYLAELLEKQSTPGIGIRIFITQPGTQYAETCIAYCKPGEEKVEDTAIALKDFTAWIDAVSEPFLEDAVVDYATDRMGGQLTIKAPNAKVPMVNEDSPITERINYYLQTEINPGLASHGGQVSLVDVVEDNIAVLRFGGGCQGCGMVDMTLKDGVEKTLIERIPELKGVRDVTDHSNKENAYY | not soluble |
